Read-outs that look alike come from different tables or passages of the source.

This is an account of results in paper PMC9596850, “Tonsillar Microbiome‐Derived Lantibiotics Induce Structural Changes of IL‐6 and IL‐21 Receptors and Modulate Host Immunity” (Advanced Science, 2022).

Test [1] has as its target mouse IL-21 receptor protein with the Fc region of human IgG1 (mouse) (UniProt Q9JHX3). The test is described as follows: SPR; Biacore 8K; receptor immobilised on CM5 chip by amine coupling, 25 °C, PBS-P running buffer; analytes with 5% DMSO injected serially; steady-state affinity model. On the technique in general: SPR reads the build-up and loss of mass on a sensor chip optically.

For test [2] the target is unchanged. The test is described as above. This is another data set of the same source.

A word on the Kd: it is the constant that tells how readily two partners part at equilibrium. High values mean a looser complex, low ones a tighter complex. On to salivaricin A2 (peptide), for which the dissociation constant (Kd) in test [1] was 29.4 µM; in test [2], 12.6 µM.
